These are literature values, as cited in PMC5669632.

One data set has as its target His25 (UniProt position 25, HGSALHWRAAG). Kind of data set: electrophysiology. Conditions: not stated for the quoted data (the present recordings are said to follow the same earlier protocols).
The target of a further data set is Glu118 (UniProt position 118, WFVGREQERRG). Kind of data set: electrophysiology. Particulars: not stated for the quoted data (the present recordings are said to follow the same earlier protocols).
Setting [1] is: closed channel state (model parameter pKa closed).
The mark [2] stands for this setting: open channel state (model parameter pKa open).

In the case of “KcsA potassium channel, E71A (non-inactivating control channel) (Streptomyces lividans; E71A)”, the pKa is recorded as 4.8 (N/A) with His25 (setting [1]) and 7.6 with His25 (setting [2]).

Consider “KcsA potassium channel, H25R/E71A (Streptomyces lividans; H25R;E71A)”, for which the pKa with Glu118 (setting [1]) is recorded as 5.0 (0.1); with Glu118 (setting [2]), 6.2 (0.1).
